The target in data set [1] is T1, HIV-1 reverse transcriptase, subtype B (HIV-1 subtype B strain HXB2, UniProt P04585;P04585 588-1147;588-1027). Briefly: filter binding.
Data set [2] deals with T1, HIV-1 reverse transcriptase, subtype B. As to the kind of experiment: filter binding. This is another data set of the same source.

B1: 88.1 (6/5AL) aptamer (structured_RNA)
RNA: GGGAAAAGCGAAUCAUACACAAGACAUUGACCAAAAGGGUCGAUAGCGUCGUGUAGAUUGCACCCAUGACUGAGCUACUGCCAAAUCCACCCACGGGCAUAAGGUAUUUAAUUCCAUA
Molecule B1 showed a Kd in data set [1] of 81 nM.

B2: Arbitrary control RNA (ssRNA)
RNA: GGGAAAAGCGAAUCAUACACAAGAAAUUUGGACUUUCCGCCCUUCUUGGCCUUUAUGAGGAUCUCUCUGAUUUUUCUUGCGUCGAGUUUUCCGGGGGCAUAAGGUAUUUAAUUCCAUA
For B2, the binding result in data set [2] is listed as “no binding”.
